Measurements as given in US20240151714A1.

Key:
[1] = target: hCG-second DNA conjugate (human) (UniProt P01215); assay: cell-based or functional assay
[2] = target: hCG-first DNA conjugate (human) (UniProt P01215); assay: cell-based or functional assay
Chain of hCG-first DNA conjugate (human) (P01215 other isoform, or with tags, fused parts or gaps limits assumed, chain 1 of 2, other chains not shown): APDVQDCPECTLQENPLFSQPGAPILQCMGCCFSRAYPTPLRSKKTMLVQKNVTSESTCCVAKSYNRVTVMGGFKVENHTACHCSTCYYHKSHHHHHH

Chain of hCG-second DNA conjugate (human) (P01215 other isoform, or with tags, fused parts or gaps limits assumed, chain 1 of 2, other chains not shown): as above

## hCG monoclonal antibody (MA5-14680; Thermo Fisher Scientific)
[1]
  limit of detection (LOD) for the antibody, PPR-based immunoassay (absorbance at 405 nm): 9.83 pM
[2]
  limit of detection (LOD) for the antibody, PPR-based immunoassay (absorbance at 405 nm): 9.83 pM
